Assay results reported in patent US11649275B2, “Dual agonist fusion proteins” (Duke University, priority 2018, dated 2023).
Entries after “also recorded” stand apart in the source; their conditions may differ.

B1: GLP1-ELP-FGF21: Fusion of GLP-1 analog, ELP (120 VPGXaaG repeats, 4:1 Val:Ala) and mutated murine FGF21; SEQ ID NO:15 (protein)
chain: AAHGEGTFTSDVSSYLEEQAAKEFIAWLVKGAGVGVPGVGVPGAGVPGVGVPGVGVPGVGVPGVGVPGAGVPGVGVPGVGVPGVGVPGVGVPGAGVPGVGVPGVGVPGVGVPGVGVPGAGVPGVGVPGVGVPGVGVPGVGVPGAGVPGVGVPGVGVPGVGVPGVGVPGAGVPGVGVPGVGVPGVGVPGVGVPGAGVPGVGVPGVGVPGVGVPGVGVPGAGVPGVGVPGVGVPGVGVPGVGVPGAGVPGVGVPGVGVPGVGVPGVGVPGAGVPGVGVPGVGVPGVGVPGVGVPGAGVPGVGVPGVGVPGVGVPGVGVPGAGVPGVGVPGVGVPGVGVPGVGVPGAGVPGVGVPGVGVPGVGVPGVGVPGAGVPGVGVPGVGVPGVGVPGVGVPGAGVPGVGVPGVGVPGVGVPGVGVPGAGVPGVGVPGVGVPGVGVPGVGVPGAGVPGVGVPGVGVPGVGVPGVGVPGAGVPGVGVPGVGVPGVGVPGVGVPGAGVPGVGVPGVGVPGVGVPGVGVPGAGVPGVGVPGVGVPGVGVPGVGVPGAGVPGVGVPGVGVPGVGVPGVGVPGAGVPGVGVPGVGVPGVGVPGVGVPGAGVPGVGVPGVGVPGVGVPGVGVPGAGVPGVGVPGVGVPGAYPIPDSSPLLQFGGQVRQRYLYTDDDQDTEAHLEIREDGTVVGAAHRSPESLLELKALKPGVIQILGVKASRFLCQQPDGALYGSPHFDPEACSFRERLLEDGYNVYQSEAHGLPLRLPQKDSPNQDATSWGPVRFLPMPGLLHEPQDQAGFLPPEPPDVGSSDPLSMVEGSQGRSPSYASG
B2: GLP1-ELP: Single agonist control: GLP-1 analog fused to ELP of 120 VPGXaaG repeats, 4:1 Val:Ala; SEQ ID NO:16 (protein)
chain: AAHGEGTFTSDVSSYLEEQAAKEFIAWLVKGAGVGVPGVGVPGAGVPGVGVPGVGVPGVGVPGVGVPGAGVPGVGVPGVGVPGVGVPGVGVPGAGVPGVGVPGVGVPGVGVPGVGVPGAGVPGVGVPGVGVPGVGVPGVGVPGAGVPGVGVPGVGVPGVGVPGVGVPGAGVPGVGVPGVGVPGVGVPGVGVPGAGVPGVGVPGVGVPGVGVPGVGVPGAGVPGVGVPGVGVPGVGVPGVGVPGAGVPGVGVPGVGVPGVGVPGVGVPGAGVPGVGVPGVGVPGVGVPGVGVPGAGVPGVGVPGVGVPGVGVPGVGVPGAGVPGVGVPGVGVPGVGVPGVGVPGAGVPGVGVPGVGVPGVGVPGVGVPGAGVPGVGVPGVGVPGVGVPGVGVPGAGVPGVGVPGVGVPGVGVPGVGVPGAGVPGVGVPGVGVPGVGVPGVGVPGAGVPGVGVPGVGVPGVGVPGVGVPGAGVPGVGVPGVGVPGVGVPGVGVPGAGVPGVGVPGVGVPGVGVPGVGVPGAGVPGVGVPGVGVPGVGVPGVGVPGAGVPGVGVPGVGVPGVGVPGVGVPGAGVPGVGVPGVGVPGVGVPGVGVPGAGVPGVGVPGVGVPGVGVPGVGVPGAGVPGVGVPGVGVPG

Legend:
[1] = LCST phase behavior characterization (turbidity OD350 vs temperature); format: physicochemical
Procedure: Phase behavior characterization: The lower critical solution temperature (LCST) phase transition behavior of ELP fusion proteins was evaluated by monitoring the OD350 of solutions in PBS as a function of temperature on a Cary 300 UV-visible spectrophotometer equipped with a multicell thermoelectric temperature controller (Agilent Technologies, Santa Clara, Calif.). Heating and cooling were set to a rate of 1° C./min. The Tt was defined as the temperature at which the optical density reached 50% of its maximal value.

[2] = tested on: db/db mice; assay: Chronic dosing study, weekly s.c. for four weeks (GTT, % HbA1c, body weight, food intake); format: in vivo; conditions: for GTT AUC: i.p. glucose tolerance test 3 days after the first dosing cycle; for fasting plasma insulin: prior to glucose challenge; for change in % HbA1c from days 0 to 27: weekly 1000 nmol/kg s.c. for four weeks; for weight gain on chronic treatment: weekly 1000 nmol/kg s.c.
Procedure: (§1) Animals: In vivo studies were conducted in accordance with the AAALAC-accredited Duke Institutional Animal Care and Use Committee. 5-week-old B6.BKS(D)-Lepr^db/J (“db/db”) male mice were purchased from Jackson Laboratory (Bar Harbor, Me.) and maintained on a 12 h/12 h light/dark cycle with ad libitum access to food (LabDiet 5053) and water. Animals were group-housed and allowed 1-week acclimation before stratification into control and treatment groups based on baseline ambient blood glucose levels and body weights.
(§2) ELP fusion treatments: ELP fusion proteins were administered at 150-200 μM concentration via injection into the subcutaneous (s.c.) space on the hind flank. Animals received either a single s.c. injection for short-term studies or weekly s.c. injections for chronic studies. The “1:1 mixture” treatment group received a single injection containing an equimolar mixture of GLP1-ELP and ELP-FGF21, with the indicated dose referring to the dose of each respective fusion in the mixture. Vehicle control refers to PBS.
Food Intake: For food intake studies, animals were group-housed 4 per cage, and food pellets were weighed every 1-2 days. Total cage food intake was calculated for each time increment, averaged per animal, and summed over the course of the study to yield a cumulative food intake per mouse. N=8 treatment groups were divided into 2 cages, allowing for an n=2 food intake standard error calculation.

[3] = tested on: db/db mice; assay: Hypoglycemia safety check (16 h extended fast, glucose-stimulated insulin in GTT)
Procedure: Glucose tolerance test: Animals were fasted at the onset of the light cycle for 5 h with ad libitum access to water, then injected via intraperitoneal (i.p.) with 0.75 g/kg D-glucose. Blood glucose levels were measured from a tail snip with a Contour Blood Glucose Meter (Bayer, Leverkusen, Germany) at t=0 (before glucose injection), 10, 20, 30, 60, 90, and 120 min.
Extended fast blood glucose measurements: Animals were fasted for 16 h starting at 4:00 PM with ad libitum access to water, after which blood glucose levels were measured from the tail vein as described for ambient blood glucose measurements.
Blood parameters: 50 μL blood samples were collected from the tail veins following a 6 h fast using Microvette EDTA coated tubes (Sarstedt), which were placed on ice until centrifugation at 5000 rcf at 4° C. for 15 min. Plasma supernatants were stored at −80° C. until time of assay. Plasma insulin levels were quantified using the Mercodia Mouse Insulin ELISA, according to the manufacturers' instructions.

[4] = Pharmacokinetic study of radiolabeled ELP fusion depots after s.c. injection; format: in vivo, mice; conditions: for Cmax / TMAX / AUC / T1/2, ABS (absorption half-life): db/db mice, 1000 nmol/kg; for Cmax / TMAX / AUC / T1/2, ABS (absorption half-life) / steady plasma drug levels: single s.c. injection; for Cmax / TMAX: radiolabeled construct; for AUC: extrapolated to 16 days post-administration; for T1/2, ABS (absorption half-life): from slope of terminal linear regression; for R-squared, first-order model / R-squared, zero-order model / Regression model, first-order elimination (Log(y)): fit to terminal portion of plasma concentration vs time data; for steady plasma drug levels: out to day 10 / for at least 10 days
Procedure: Pharmacokinetic studies: Tyrosine residues on GLP1-ELP, ELP-FGF21, or GLP1-ELP-FGF21 fusion proteins were reacted with Na^125I radionuclide (Perkin Elmer) using Pierce Pre-Coated Iodination Tubes (Thermo Fisher Scientific) and the indirect method for iodination. Radiolabeled protein was purified from unreacted radionuclide with Zeba Spin Desalting Columns (Thermo Fisher Scientific). Activities of radiolabeled constructs were measured with an Atomlab 400 Dose Calibrator (Biodex, Shirley, N.Y.) and correlated to protein concentration. Mice received a single s.c. injection of radiolabeled fusion, and 10 μL blood samples were collected at frequent time points from the tail vein and stored at room temperature until radioactivity quantification. Sample counts were measured at the end of the study on a Wallac Wizard 1480 Automatic Gamma Counter (Perkin Elmer). An activity vs. count standard curve was used to convert sample counts to activities, and subsequently to moles of drug.
Pharmacokinetic analysis: The maximum serum concentration (Cmax) was recorded as observed, as well as time to reach Cmax (tmax). […] Absorption half-life (t1/2, abs) was estimated from the slope of the linear regression curve. When a drug administered at an extravascular site yields a terminal half-life greater than that resulting from an i.v. bolus, the terminal half-life reflects the absorption half-life.

[5] = tested on: db/db mice; assay: Single s.c. injection dose study of GLP1-ELP-FGF21 (ambient blood glucose, body weight); format: in vivo
Procedure: as §1, §2
Ambient blood glucose measurements: Blood glucose levels were measured from a tail vein puncture with an AlphaTRAK 2 Blood Glucose Meter (Zoetis, Parsippany-Troy Hills, N.J.) every 24 h, 1-2 h following onset of the light cycle. Data are presented as either raw values, or as a magnitude change from a mean baseline established from three independent measurements collected prior to treatment. Areas under the curve (AUCs) were calculated with GraphPad Prism 8 software using the trapezoidal rule and setting a Y=0 baseline. Treatment group AUCs were normalized to the vehicle-treated group where indicated.

[6] = tested on: db/db mice; assay: Short-term co-treatment pilot study, 48 h after single s.c. injection; format: in vivo; conditions: 48 h post-injection, 1000 nmol/kg s.c.
Procedure: as §1, §2
(§3) Ambient blood glucose measurements: Blood glucose levels were measured from a tail vein puncture with an AlphaTRAK 2 Blood Glucose Meter (Zoetis, Parsippany-Troy Hills, N.J.) every 24 h, 1-2 h following onset of the light cycle. […] Areas under the curve (AUCs) were calculated with GraphPad Prism 8 software using the trapezoidal rule and setting a Y=0 baseline. […]

[7] = target: T1, GLP-1R (Homo sapiens, UniProt P43220); assay: cAMP production assay (GLP-1R agonism, HEK293 cells with cAMP-inducible luciferase reporter); format: cell-based; conditions: fusion of GLP1 to ELP or ELP-FGF21
T1 construct: expressed in transfected cells; host or cells: HEK293
T1 sequence (P43220 24-463, species assumed): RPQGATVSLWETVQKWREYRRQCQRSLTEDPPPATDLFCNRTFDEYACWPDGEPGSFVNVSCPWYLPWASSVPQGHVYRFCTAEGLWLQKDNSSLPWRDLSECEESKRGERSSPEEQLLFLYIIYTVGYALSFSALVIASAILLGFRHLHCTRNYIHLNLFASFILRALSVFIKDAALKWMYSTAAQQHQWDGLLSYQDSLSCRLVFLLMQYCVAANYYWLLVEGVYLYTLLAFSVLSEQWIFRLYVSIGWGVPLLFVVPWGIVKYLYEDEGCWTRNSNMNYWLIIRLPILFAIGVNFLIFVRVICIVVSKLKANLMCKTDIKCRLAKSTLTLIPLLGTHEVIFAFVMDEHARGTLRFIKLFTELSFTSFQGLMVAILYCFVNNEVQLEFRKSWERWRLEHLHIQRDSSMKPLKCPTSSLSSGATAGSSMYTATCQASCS
Procedure: This time, however, the intended cleavage substrate was a GA leader instead of the AA leader. […] Data were fit to a three-parameter dose-response curve to determine EC50s.
Cells were seeded at 1×10^5 cells/cm^2 into 96 well plates and adhered overnight. […] Luminescence of the supernatant samples were measured on a Victor X3 Plate Reader (Perkin Elmer) and normalized to zero drug treatment control wells. Data were fit to a three-parameter dose-response curve to determine EC50s using GraphPad Prism 8 software.

[8] = tested on: db/db mice; assay: GLP1-ELP control, single s.c. injection, glycemia and body weight for 10 days; format: in vivo; conditions: 1000 nmol/kg single s.c.
Procedure: as §1, §2, §3

[9] = 5 h fast, 3 days after the first dosing cycle, 1000 nmol/kg s.c.
[10] = 3 days after the first dosing cycle

Molecule	fasting blood glucose levels [2, 9] [mg/dL]	food intake ([2]; four-week treatment period)	GTT AUC [2]	fasting plasma insulin [2, 10]	change in % HbA1c from days 0 to 27 [2]	weight gain on chronic treatment ([2]; four-week treatment period) [%]	Cmax [4] [nM]	TMAX [4] [H]	AUC [4] [NM*D]	T1/2, ABS (absorption half-life) [4] [D]	R-squared, first-order model [4]	R-squared, zero-order model [4]	Regression model, first-order elimination (Log(y)) [4]	steady plasma drug levels [4]	also measured
B1	125 ± 6.0	consuming chow at an equivalent rate to GLP1-ELP	significantly decreased GTT AUC compared to GLP1-ELP or ELP-FGF21	without a significant elevation in insulin	+0.3±0.2%	14.1±1.6	411 ± 51	10.5 ± 1.5	1961 ± 59	7.6 ± 1.1	0.85	0.81	Log(y) = −0.0416x + 2.431	~100 nM	reversibility of phase change behavior ([1]; temperature ramped up to 37° C., then down to 20° C.): reversible; fasting blood glucose levels ([2]; GTT 3 days following the final treatment): 92.7 ± 8.3 mg/dL; negative net weight gain values persisting through ([2]; weekly dosing): 12 days; blood glucose levels after overnight 16 h fast ([3]; 1000 nmol/kg s.c., fast begun 48 h post-treatment, threshold of hypoglycemia): 50 to 55 mg/dL; ad libitum-fed blood glucose levels ([3]; 48 h post-treatment, 1000 nmol/kg s.c., vs vehicle): significant reductions; blood glucose levels during recovery (return to pre-injection baselines) ([3]; t=60 to t=120 min post-challenge in GTT): -100 mg/dL; absorption half-life ([4]; linear regression fit to terminal portion of the data, 1000 nmol/kg s.c.): 182 ± 26.4 h; body weight % change on day 7 post-treatment ([5]; 750 nmol/kg): −2.6±3.3%; blood glucose vs. time AUC ([5]; 750 nmol/kg and 1000 nmol/kg, single s.c. injection, vs vehicle): Significant reductions; body weight % change on day 7 post-treatment ([5]; 1000 nmol/kg): −2.7±3.7%; ambient blood glucose levels after treatment ([5]; all doses, reduced from >300 mg/dL): < 150 mg/dL; persistence of blood glucose effects ([5]; highest dose tested, 1000 nmol/kg): 8 days; persistence of blood glucose effects ([5]; lowest dose, 250 nmol/kg): 4 days; duration of therapeutic drug levels and protection from hyperglycemia and weight gain ([5]; single injection): > 7 days; reduction of body weights (maximum) ([5]; two highest doses tested (750 and 1000 nmol/kg)): up to 7.2±2.3%
B2	167 ± 11	significant reduction in food intake	outperformed ELP-FGF21 in improving glucose tolerance	significant increase in fasting plasma insulin	+1.0±0.2%	25.3±1.9	369 ± 14	4.8 ± 0.7	2023 ± 67	20.8 ± 3.2	0.61	0.58	Log(y) = −0.01628x + 2.263	around 100 nM	Tt (transition temperature) ([1]; PBS, injection-relevant concentration of 200 μM): 27.5 °C; body weight, % change from pre-injection weight [6]: −0.2±0.6%; % HbA1c elevation relative to control ([2]; four-week study): significantly reduced % HbA1c elevation relative to control; effect on body weight / weight gain compared to vehicle ([2]; four-week treatment period): significantly inhibited weight gain; increase in GLP-1R EC50 compared to native GLP-1 [7]: approximately ten-fold; also recorded: ten-fold increase; plasma levels of component of 1:1 mixed depot ([4]; 1:1 mixture, 1000 nmol/kg each, steady for 7 days): around 100 nM; weight gain compared to control mice ([8]; daily for 10 days): significantly inhibited weight gain; ambient blood glucose levels after treatment ([8]; reduced from >300 mg/dL for the duration of the 10 day study): < 200 mg/dL
